This assay deals with IMP-4-type carbapenemase. The experiment in a line: indirect ELISA, plate coated with IMP-4-type carbapenemase at 0.2 ug/mL, purified antibody serially diluted from 1:1,000. Conditions: scale: dilution factor.

B1: anti-IMP-type carbapenemase antibody 1AA4 (antibody, V domains shown)
VH: VQLVVSGGGLVNPDGSLKLSCAASGFTFSDYYMYWVRQTPEKRLEWVAIISDGGSYTYYPDSVKGRFTISRDNAKNNLYLQMSGLRSEDTAMYYCVRGSFDVWGAGTTVTVSA
VL: DIVMTQSPLTLSVTLGQPASISCRSSQSLLDSGGKTYLNWFLQRPGQSPKRLIYLVSKLDSGVPDRFTGSGSGTDFTLRISRVEAEDLGIYYCFQYTHFPQCTFGGGTTLEIKR
As to B1, the titer was greater than 640000.

B2: anti-IMP-type carbapenemase antibody AH9 (antibody, V domains shown)
VH: VKLQQSGAELVKPGASVKISCKASGYTFTDYNMDWVKQSHGKSLEWIGDINPNYDSTRYNQKFKGKATLTVDKSSSTAYMELRSLTSEDTAVYYCARDGRYAMDYWGQGTSVTVSS
VL: DIVMTQSPSSLSVSAGEKVTLTCKSSQSLLNSGHQKNYLAWYQQKPGQPPKLLIYGASTRKSGIPDRFTGSGSGTDFTLTISSVQAEDLAVYYCQNDHRYPLTFGAGTKLELKR
For the molecule B2, the titer was greater than 640000.

Values taken from patent EP4063497B1.
